This is an account of results in patent US9687529B2, “Method of controlling coagulation” (Duke University, priority 2011, dated 2017).

The subject of data set [1] is clot formation in plasma. Particulars: cited from earlier work.
The conditions of data set [2]: patient with renal failure; cited from earlier work.
Data set [3] has as its system clot formation in whole blood. Description: Antidote reversal TEG of 11F7T+R9D-14T anticoagulation. The format is cell-based, human. Conditions: blood anticoagulated 1 hour with 11F7T 0.5 μM+R9D-14T 5 μM; protamine 22 μM (4-fold molar excess); average. The procedure:
For the antidote reversal TEGs, whole blood was anticoagulated with a combination of the FXa (0.5 μM) and prothrombin (5 μM) aptamers for 1 hour as described, antidote (10 μL) was added, and the assay was continued until a stable clot was formed. For complete antidote reversal at one hour a 4-fold molar excess of protamine (22 μM) was added, 50 μg of CDP was added, or a 2-fold molar excess of the R9D-14T oligonucleotide (10 μM) in combination with a 3-fold molar excess of the 11F7T antidote oligonucleotide (1.5 μM) was added.
Whole blood was anticoagulated with 11F7T+R9D-14T at a dose that prevents clot formation for greater than three hours, and various antidotes were subsequently added after one hour to assess anticoagulation reversal and resulting clot formation. Both protamine and the β-cyclodextrin containing polymer (CDP) were tested for their ability to function as a universal antidote by simultaneously reversing both aptamers in combination (Oney et al, Nat Med 15:1224-8 (2009)). […] Thus, although the 11F7T+R9D-14T aptamer combination is an extremely potent anticoagulant cocktail that can mimic UFH anticoagulation in an ex vivo oxygenator circuit, the aptamer combination can be rapidly reversed with either a universal antidote or a combination of oligonucleotide antidotes.

In data set [4] the test system is thrombin generation in normal human platelet poor plasma. In words: Calibrated automated thrombography (CAT). It is filed as biochemical. Conditions: TF 5 ρM. The procedure:
Normal human platelet poor plasma (80 μL) was mixed with aptamer(s) (10 μL) in an Immunolon 2HB U Bottom Mictrotiter 96-well plate (Thermo Labsystems, Franklin, Mass.) and incubated at 37° C. for 5 min. PPP reagent (Diagnostica Stago, Parsippany, N.J.) (either 1 ρM or 5 ρM TF, 20 μL, Diagnostica Stago) was added, and the mixture was incubated at 37° C. for another 5 min. FluCa (Diagnostica Stago) (10 μL) was added to initiate the assay and thrombin generation was measured for 60 minutes at 37° C. with a Fluoroskan Ascent fluorometer (ThermoLabsystem, Helsinki, Finland) according to the manufacturer's instructions. The amount of thrombin generated was quantified by comparison to an assay with thrombin calibrator reagent (Diagnostica Stago) that has a known activity toward the fluorogenic substrate. The lag time, peak amount of thrombin generated, and endogenous thrombin potential (ETP) were automatically calculated by the Thrombinoscope software (Thrombinoscope BV, the Netherlands).
Thrombin is the final protease formed in the coagulation cascade, and the rate of thrombin generation and the total amount of thrombin generated is associated with blood clot formation and stability (Wolberg, Blood Rev 21:131-42 (2007)). To gain more information about the impact of aptamer anticoagulation on the kinetics of thrombin generation, the individual aptamers were analyzed with calibrated automated thrombography (CAT). The CAT assay measures real-time thrombin generation in plasma by monitoring cleavage of a thrombin-specific fluorogenic substrate in response to TF stimulation (Heruker et al, Pathophysiol Haemost Thromb 33: 4-15 (2003)). The parameters of thrombin generation analyzed include: the lag time (time until thrombin generation begins), the peak (the maximal amount of thrombin generated at a given time) and the endogenous thrombin potential (ETP, the total amount of thrombin generated). Similar to the aPTT and PT clotting assays, all of the individual aptamers dose-dependently impacted the various parameters of thrombin generation (FIG. 21 and Table 1). […] 9.3T minorly impacted all parameters of thrombin generation with the high TF reagent; however, because high concentrations of TF may bypass FIX activity by directly generating FXa, the manufacturer recommends low concentrations of TF for analyzing FIX deficient (i.e, Hemophilia B) plasma in the CAT.

Data set [5] relates to clot formation in whole blood. Description: Thromboelastography (TEG), whole blood stimulated with tissue factor. The format is cell-based, human. Here is the method: Blood was drawn from healthy, consented volunteers under a Duke University Institutional Review Board approved protocol and anticoagulated with 3.2% sodium citrate. Whole blood (320 μL) was mixed with anticoagulant (heparin or aptamers) (10 μL) and kaolin (Haemonetics, Niles, Ill.) (10 μL) or CAT PRP reagent (Diagnostica Stago, 0.33 ρM TF final) (10 μL) was added to stimulate clotting. CaCl2 (20 μL) was immediately added to overcome the citrate, the mixture was added to a plain disposable plastic TEG cup (Haemonetics), and the assay was run according to the manufacturer's instructions. Clot formation at 37° C. was measured with a Thromboelastograph Analyzer (Haemonetics, Niles, Ill.) until a stable clot was formed (i.e., a maximum amplitude was reached) or for three hours with the aptamer combinations. The time lag time, α-angle, and maximum amplitude were automatically calculated by the TEG® Analytical Software version 4.2.3 (Haemonetics).
Because kaolin stimulates blood via the intrinsic pathway, it is unlikely that 7S-1 (FVIIa aptamer) would impair clot formation with this type of stimulation; thus, this aptamer was tested in a modified TEG with TF stimulation. CAT platelet rich plasma (PRP) reagent (TF) was diluted to a final concentration of 0.33 ρM TF to stimulate clotting.

Data set [6] has as its system clot formation in whole blood. In words: TEG of whole blood, coagulation triggered by tissue factor (Example I). It is filed as cell-based. Particulars: TF; FVIIa aptamer 0.5, FIXa aptamer 1.0, FXa aptamer 1.0 micromolar. Here is the method:
TEG is a waveform generated from serial measurements of the torque transmitted from a small oscillating cup to the tip of a metal pin inserted into the cup by a 360 microliter sample of blood or plasma added to the cup.
A 360 microliter blood sample has been added to the cup. For 180 minutes after the sample is added, the cup oscillates alternatively clockwise and counterclockwise through an arc of 4° 45′ at a frequency of one oscillation cycle—i. e., one clockwise rotation and one counterclockwise rotation—every 10 seconds. The lower end of the pin is immersed by the sample; the upper end is suspended from a torsion wire. The TEG analyzer records a single measurement of rotation-induced torque after each clockwise rotation and after each counterclockwise rotation of the cup. “The torque of the rotating cup is transmitted to the immersed pin only after fibrin-platelet bonding has linked the cup and [the] pin together. The strength of these fibrin-platelet bonds affects the magnitude of the pin motion, such that strong clots move the pin directly in phase with the cup motion. Thus, the magnitude of the output is directly related to the strength of the formed clot . . . . [If] the clot retracts or lyses, these bonds are broken and the transfer of cup motion is diminished. The rotation movement of the pin is converted by a mechanical-electrical transducer to an electrical signal which can be monitored by a computer” (TEG 5000 User Manual, pp 3-4, 1999-2007)). The computer converts the series of electrical signals into the TEG tracing.

Data set [7] concerns clot formation in normal human platelet poor plasma. In words: Prothrombin time (PT) plasma clotting assay. The format is biochemical. The procedure: (§1) The activated partial thromboplastin time (aPTT) and prothrombin time (PT) assays were performed on a model ST4 mechanical coagulometer (Diagnostica Stago, Parsippany, N.J.) as previously described (Bompiani et al, J Thromb Haemost 10:870-80 (2012)). For the aPTT, 50 μL of normal human platelet poor plasma (PPP) was incubated with 50 μL TriniClot aPTT S (Trinity BioTech, Bray, Co Wicklow, Ireland) at 37° C. for 5 min. Aptamer(s) (5 μL) was added, and the mixture was incubated at 37° C. for another 5 min, and CaCl2 (50 μL) was added to initiate the assay. For the PT, 50 μL of normal human PPP was incubated with 5 μL of aptamer(s) at 37° C. for 5 min. TriniClot PT Excel reagent (Trinity BioTech, Bray, Co Wicklow, Ireland) (100 μL) was added to initiate the reaction. Assays with a combination of two aptamers contain an equimolar concentration of each individual aptamer, and the data shown are the total RNA concentration.
(§2) To compare the anticoagulant effect of these four aptamers, dose-response titrations were performed in several clinical plasma-based clotting assays. The activated partial thromboplastin time (aPTT) and prothrombin time (PT) are plasma clotting assays that are clinically used to probe for abnormalities in the intrinsic and extrinsic coagulation pathways, respectively (Van Cott et al, editors. Jacobs & DeMott laboratory test handbook. 5th ed. Hudson Ohio: Lexi-Comp. p. 327-58 (2001)). These relatively simple assays measure the time until clot formation in platelet poor plasma (PPP) in response to either robust tissue factor (TF), or contact stimulation via negatively charged surfaces (i.e., silica, kaolin, celite). […] At high concentrations, the prothrombin aptamer (R9D-14T) was the most robust anticoagulant and inhibited greater than 96% of prothrombin activity in the aPTT and PT. At 4 μM, R9D-14T increased the aPTT clotting time approximately 18-fold and the PT clotting time greater than 80-fold (exceeded the assay limit of 999 sec). […] At the same dose, the FIXa aptamer (9.3T) inhibited greater than 99% of FIX activity and increased the aPTT clotting time approximately 5.5-fold, while the FVIIa aptamer (7S-1) increased the PT clotting time 3-fold and inhibited greater than 99% of FVII activity (FIGS. 20A and 20B).

For data set [8] the test system is unchanged. Description: Activated partial thromboplastin time (aPTT) plasma clotting assay. The format is biochemical. Conditions: aPTT. The procedure:
as §1, §2

Data set [9] relates to clot formation in whole human blood. In words: TEG of dogbone aptamer in whole human blood. It is filed as cell-based. Here is the method: Activity of dogbone 4 was tested using thromboelastography (TEG), an assay using whole human blood.

Changes are numbered by the printed parent chain. Where “and” joins values, the source holds several entries; their conditions need not be identical. Equal entries are not always repeated. Where two headings read alike, the source gives them in different places. Strand notation (5' to 3'): a small letter for the sugar, then the base; units joined by * are phosphorothioate-linked, units joined directly phosphodiester-linked; [ ] holds rarer units or linkages, { } end groups; capitals alone tell only the bases. r = 2'-OH (RNA); f = 2'-fluoro

Take `CC1CNc2c(cccc2S(=O)(=O)N[C@@H](CCCNC(=N)N)C(=O)N2CC[C@@H](C)C[C@@H]2C(=O)O)C1` (stereo partly drawn) [argatroban]: in [1] (concentration ten-fold higher than recommended for CPB), the “clot propagation and strength (in words)” value was “did not significantly reduce clot propagation and strength”.

For lepirudin, the “clot propagation and strength (in words)” value in data set [1] (10 micrograms/mL, approximately 1.4 micromolar) is “significantly reduce clot propagation and strength”. Further, the “time the drug can remain in the circulation” value in [2] is more than 120 h.

As to protamine, the “time to stable clot formation after antidote” value in [3] is not above 15 min.

B1: 7S-1: FVIIa aptamer, 2'-fluoropyrimidine modified RNA, SEQ ID NO: 5 (nucleic acid)
chain: rGrGrGrArGrGrAfCrGrAfUrGfCrGrGrAfCfUfCfCfUfCfCrArArGfCrGrAfCfCrArAfCrAfUfCrGrGfUfCfCfCrGfUfUfUfCrArGrAfUfCrArAfCrArGrAfCrGrAfCfUfCrGfCfUrGrArGrGrAfUfCfCrGrArGrA
Turning to B1, the ETP in data set [4] (RNA 1.25 nM) came to 1657.33 ± 42.72 nM·min; in [4] (RNA 2.5 nM) it was 1603.50 ± 28.00 nM·min; in data set [4] (RNA 5 nM) it was 1656.20 ± 96.89 nM·min; in data set [4] (RNA 10 nM), 1339.50 ± 21.15 nM·min; in [4] (RNA 30 nM), 1523.50 ± 160.63 nM·min. In addition, the Lag-time in data set [4] (RNA 1.25 nM) amounted to 1.67 ± 0.19 min; in data set [4] (RNA 2.5 nM), 2.00 ± 0.17 min; in data set [4] (RNA 5 nM) it was 3.17 ± 0.19 min; in data set [4] (RNA 10 nM), 4.51 ± 0.42 min; in data set [4] (RNA 30 nM) it was 6.01 ± 0.44 min; in data set [5] (RNA 0.12 μM), 4.5 ± 0.6 min. The Lag-time in data set [5] (RNA 0.25 μM) is 5.1 ± 1.2 min; in [5] (RNA 0.50 μM), 6.6 min and 6.6 ± 0.8 min. In addition, the Peak turned out to be 314.56 ± 14.17 nM in [4] (RNA 1.25 nM); 274.39 ± 29.71 nM in data set [4] (RNA 2.5 nM); 238.68 ± 31.03 nM in data set [4] (RNA 5 nM); 130.54 ± 14.06 nM in data set [4] (RNA 10 nM); 199.25 ± 41.13 nM in data set [4] (RNA 30 nM). The TTP came to 4.28 ± 0.20 min in data set [4] (RNA 1.25 nM); 5.29 ± 0.55 min in data set [4] (RNA 2.5 nM); 7.34 ± 0.55 min in [4] (RNA 5 nM); 11.01 ± 0.79 min in data set [4] (RNA 10 nM); 10.80 ± 1.03 min in data set [4] (RNA 30 nM). Further, the Angle in data set [5] (RNA 0.12 μM) is 65.2 ± 5.2 deg; in [5] (RNA 0.25 μM) it was 62.4 ± 3.7 deg; in [5] (RNA 0.50 μM) it was 61.9 deg and 61.9 ± 3.3 deg. Further, the “Max. Amplitude” value is 63.0 ± 3.7 mm in data set [5] (RNA 0.12 μM); 64.0 ± 2.8 mm in data set [5] (RNA 0.25 μM); 63.1 mm and 63.1 ± 2.0 mm in data set [5] (RNA 0.50 μM). Also, the “clot formation (in words)” value in data set [6] is listed as “none of those aptamers prevented clot formation”. Moreover, in data set [7] (4 μM aptamer), the “increase of PT clotting time” value is on record as 3 fold. Moreover, the FVII activity inhibited entry in data set [7] (PT, 4 μM) is given as “greater than 99%”.

B2: 4G dogbone 4: truncate of FX/FII dogbone 4, SEQ ID NO: 24 (nucleic acid)
chain: GGGGAUCACACAGUUCAAACGUAAUAAGCCAAUGUACGAGGCAGACCCCAAAGCCCCAGCGAGAUAAUACUUGGCCCCGCU
modifications: listed as RNA, chemistry not given here
As to B2, the “anti-coagulation activity of dogbone 4 truncates (in words)” value in data set [8] is on record as “best anti-coagulation activity of the truncates”.

B3: FX/FII dogbone 4: FX/FII dogbone aptamer of reduced size, SEQ ID NO: 22 (nucleic acid)
chain: B2 chain with G2U, G3C, C47G, C48A
modifications: listed as RNA, chemistry not given here
Consider B3, for which the “activity compared to the free combination of aptamers (in words)” value is “comparable or better activity than the free combination of aptamers” in data set [9]; “inhibits clot formation as well as the combination of individual Factor II (R9D-14T) and X (11f7T) aptamers” in data set [9] (listed as Dogbone Aptamer 4).
